Results taken from patent publication US20230193513A1 (published 2023).

Molecular target: T1, flag-GLP1R-GFP expressed on CHO cells (UniProt P43220 24-463)
T1 chain: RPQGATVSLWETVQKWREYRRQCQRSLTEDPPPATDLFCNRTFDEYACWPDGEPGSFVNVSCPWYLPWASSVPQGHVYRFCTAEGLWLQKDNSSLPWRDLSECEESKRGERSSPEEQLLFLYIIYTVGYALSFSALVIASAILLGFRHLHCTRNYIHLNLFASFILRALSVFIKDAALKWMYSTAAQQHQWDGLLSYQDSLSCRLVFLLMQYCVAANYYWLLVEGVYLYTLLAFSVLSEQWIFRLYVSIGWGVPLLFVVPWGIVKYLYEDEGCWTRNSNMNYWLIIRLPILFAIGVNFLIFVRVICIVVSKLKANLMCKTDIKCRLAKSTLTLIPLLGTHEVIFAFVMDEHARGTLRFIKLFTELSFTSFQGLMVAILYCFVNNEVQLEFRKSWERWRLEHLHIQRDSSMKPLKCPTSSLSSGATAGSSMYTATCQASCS
Assay: FACS cell binding

EC50: 27.7 nM
B1: GLP1R-242 (antibody)
heavy: QVQLVQSGAEVKKPGSSVKVSCKASGGTFSSYEISWVRQAPGQGLEWMGGIIPILGIANYAQKFQGRVTITADESTSTAYMELSSLRSEDTAVYYCAKHMSMQADTGTFTSDVSSYLEGQAAKEFIAWLVKGEFSSRADLVGDAFDVWGQGTLVTVSSASASTKGPSVFPLAPCSRSTSESTAALGCLVKDYFPEPVTVSWNSGALTSGVHTFPAVLQSSGLYSLSSVVTVPSSNFGTQTYTCNVDHKPSNTKVDKTVERKCCVECPPCPAPPVAGPSVFLFPPKPKDTLMISRTPEVTCVVVDVSHEDPEVQFNWYVDGVEVHNAKTKPREEQFNSTFRVVSVLTVVHQDWLNGKEYKCKVSNKGLPAPIEKTISKTKGQPREPQVYTLPPSREEMTKNQVSLTCLVKGFYPSDIAVEWESNGQPENNYKTTPPMLDSDGSFFLYSKLTVDKSRWQQGNVFSCSVMHEALHNHYTQKSLSLSPG
light: QSVLTQPPSVSAAPGQKVTISCSGSSSNIENNDVSWYQQLPGTAPKLLIYGNDQRPSGIPDRFSGSKSGTSATLGITGLQTGDEADYYCGTWDNTLSAGVFGGGTKLTVLGQPKAAPSVTLFPPSSEELQANKATLVCLISDFYPGAVTVAWKADSSPVKAGVETTTPSKQSNNKYAASSYLSLTPEQWKSHRSYSCQVTHEGSTVEKTVAPTECS
